Results taken from PMC12417186.

Experiments:
[1] = molecular target: C3b purified from plasma of donor D2 by the novel direct method (human) (UniProt P01024); assay: SPR; C3b biotinylated at the thioester sulfhydryl, immobilised on SA sensor chip (950-1050 RU); analytes injected 2 min at 30 µl/min; 25°C; PBS, 0.05% Tween20, 1 mM MgCl2; 1:1 steady-state model; Biacore X100
[2] = molecular target: C3b purified from plasma of donor D3 by the novel direct method (human) (UniProt P01024); assay: as above
[3] = molecular target: C3b (commercial), Complement Technology (human) (UniProt P01024); assay: as above
[4] = molecular target: C3b purified from plasma of donor D1 by the novel direct method (human) (UniProt P01024); assay: as above
[5] = molecular target: C3b purified from plasma of donor D2 by the novel direct method (human) (UniProt P01024); assay: SPR; on-chip convertase assay: 600 nM FB and 100 nM FD injected 3 min over biotinylated C3b on SA chip, 10 min dissociation; 25°C; PBS, 0.05% Tween20, 1 mM MgCl2; exponential decay fit of 200-780 s; mean of three curves; 'estimated'
[6] = molecular target: C3b purified from plasma of donor D3 by the novel direct method (human) (UniProt P01024); assay: as above
[7] = molecular target: C3b (commercial), Complement Technology (human) (UniProt P01024); assay: as above
[8] = molecular target: C3b purified from plasma of donor D1 by the novel direct method (human) (UniProt P01024); assay: as above

Row | Kd [1] [µM] | Kd [2] [µM] | Kd [3] [µM] | Kd [4] [µM] | koff [5] [s⁻¹] | koff [6] [s⁻¹] | koff [7] [s⁻¹] | koff [8] [s⁻¹] | Substance
1 | 10.4 | 10.6 | 9.3 | 10.5 | – | – | – | – | complement Factor H CCPs 19-20 (domain or fragment)
2 | – | – | – | – | 0.002 | 0.0019 | 0.0019 | 0.002 | Bb fragment of Factor B in the alternative pathway convertase C3bBb (from UniProt P00751 260-764) (domain or fragment)
3 | 0.65 | 0.438 | 0.476 | 0.485 | – | – | – | – | complement receptor 1 (CR1) complement control protein (CCP) domains 15-17 (domain or fragment)
4 | 0.944 | 0.795 | 0.754 | 0.86 | – | – | – | – | variable domain of the complement receptor of the immunoglobulin superfamily (domain or fragment)
